{"source": "IntAct's records for PubMed 22632968", "key": {"sun1_human SUN1 [1]": {"target": "sun1_human SUN1 (UniProt O94901)", "sequence (O94901 whole entry)": "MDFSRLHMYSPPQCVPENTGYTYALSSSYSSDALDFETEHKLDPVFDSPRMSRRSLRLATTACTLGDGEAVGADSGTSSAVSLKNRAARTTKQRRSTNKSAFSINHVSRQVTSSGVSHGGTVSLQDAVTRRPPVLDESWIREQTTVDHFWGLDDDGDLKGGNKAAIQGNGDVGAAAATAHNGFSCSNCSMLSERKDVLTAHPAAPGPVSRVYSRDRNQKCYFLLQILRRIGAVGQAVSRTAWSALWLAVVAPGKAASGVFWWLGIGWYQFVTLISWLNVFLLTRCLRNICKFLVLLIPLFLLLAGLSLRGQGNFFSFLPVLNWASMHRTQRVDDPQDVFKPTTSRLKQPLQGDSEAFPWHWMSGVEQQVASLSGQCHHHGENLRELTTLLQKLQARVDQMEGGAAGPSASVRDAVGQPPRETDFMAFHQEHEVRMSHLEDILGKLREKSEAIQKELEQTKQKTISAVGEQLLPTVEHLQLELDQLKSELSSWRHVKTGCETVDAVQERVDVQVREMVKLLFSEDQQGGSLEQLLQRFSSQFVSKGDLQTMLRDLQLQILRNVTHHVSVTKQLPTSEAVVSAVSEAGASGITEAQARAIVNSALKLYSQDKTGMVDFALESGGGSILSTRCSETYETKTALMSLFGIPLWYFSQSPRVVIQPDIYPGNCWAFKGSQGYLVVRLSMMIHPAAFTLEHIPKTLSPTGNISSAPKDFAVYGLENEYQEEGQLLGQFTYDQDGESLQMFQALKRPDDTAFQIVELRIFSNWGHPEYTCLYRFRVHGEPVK"}, "sun2_human SUN2 [2]": {"target": "sun2_human SUN2 (UniProt Q9UH99)", "sequence (Q9UH99 whole entry)": "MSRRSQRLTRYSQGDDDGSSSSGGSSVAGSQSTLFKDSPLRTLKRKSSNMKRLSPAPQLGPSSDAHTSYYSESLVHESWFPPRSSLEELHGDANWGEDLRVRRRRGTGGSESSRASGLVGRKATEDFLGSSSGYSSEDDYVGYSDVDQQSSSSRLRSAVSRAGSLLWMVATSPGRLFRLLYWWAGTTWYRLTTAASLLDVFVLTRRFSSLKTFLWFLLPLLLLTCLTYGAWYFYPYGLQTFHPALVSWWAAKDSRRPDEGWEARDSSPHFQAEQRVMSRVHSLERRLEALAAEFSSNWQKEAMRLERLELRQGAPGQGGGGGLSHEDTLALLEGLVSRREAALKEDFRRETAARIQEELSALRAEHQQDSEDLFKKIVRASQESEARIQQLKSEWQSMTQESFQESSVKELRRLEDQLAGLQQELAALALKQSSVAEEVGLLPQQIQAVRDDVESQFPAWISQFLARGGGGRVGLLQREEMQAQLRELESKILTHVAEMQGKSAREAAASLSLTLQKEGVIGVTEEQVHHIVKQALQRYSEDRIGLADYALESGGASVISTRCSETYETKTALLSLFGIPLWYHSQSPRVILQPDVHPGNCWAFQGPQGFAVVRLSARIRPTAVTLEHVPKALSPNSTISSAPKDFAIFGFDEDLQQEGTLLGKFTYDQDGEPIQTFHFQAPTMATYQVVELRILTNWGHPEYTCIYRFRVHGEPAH"}, "sun1_human SUN1 [3]": {"target": "sun1_human SUN1 (UniProt O94901)", "remark": "listed apart in the source"}, "sun2_human SUN2 [4]": {"target": "sun2_human SUN2 (UniProt Q9UH99)", "remark": "listed apart in the source"}, "sun2_human SUN2 [5]": {"target": "sun2_human SUN2 (UniProt Q9UH99)", "remark": "listed apart in the source"}, "sun2_human SUN2 [6]": {"target": "sun2_human SUN2 (UniProt Q9UH99)", "remark": "listed apart in the source"}, "sun1_human SUN1 [7]": {"target": "sun1_human SUN1 (UniProt O94901)", "remark": "listed apart in the source"}}, "data": [{"substance": "Nesprin-1 (Homo sapiens), Q8NF91-1 C8774S", "values": [{"measurement": "effect of a mutation on the interaction", "setting": "sun1_human SUN1 [1]", "value": "disrupting interaction"}, {"measurement": "effect of a mutation on the interaction", "setting": "sun2_human SUN2 [2]", "value": "decreasing interaction strength"}, {"measurement": "effect of a mutation on the interaction", "setting": "sun1_human SUN1 [3]", "value": "disrupting interaction strength"}, {"measurement": "effect of a mutation on the interaction", "setting": "sun2_human SUN2 [4]", "value": "disrupting interaction strength"}]}, {"substance": "Nesprin-2 (Homo sapiens), Q8WXH0 Y6878A", "values": [{"measurement": "effect of a mutation on the interaction", "setting": "sun2_human SUN2 [5]", "value": "disrupting interaction strength"}]}, {"substance": "Nesprin-2 (Homo sapiens), Q8WXH0-1 C6862S", "values": [{"measurement": "effect of a mutation on the interaction", "setting": "sun2_human SUN2 [6]", "value": "disrupting interaction strength"}, {"measurement": "effect of a mutation on the interaction", "setting": "sun1_human SUN1 [7]", "value": "disrupting interaction strength"}]}, {"substance": "Nesprin-2 (Homo sapiens), Q8WXH0 L6876A", "values": [{"measurement": "effect of a mutation on the interaction", "setting": "sun2_human SUN2 [5]", "value": "disrupting interaction strength"}]}, {"substance": "Nesprin-2 (Homo sapiens), Q8WXH0 P6883A", "values": [{"measurement": "effect of a mutation on the interaction", "setting": "sun2_human SUN2 [5]", "value": "disrupting interaction strength"}]}]}
